This is an account of results in article PMC4794849.

What all share (test): filter binding
Settings in all cases: Filter binding: 20 mM HEPES-KOH pH 7.5, 1 mM MgCl2, 10 µM TCEP, 5 mM β-mercaptoethanol, 10 µM ZnCl2, 50-500 mM NaCl, 0.2 nM RNA, 25 min, room temperature. …

Data set [1] deals with HIV-2 GagΔp6 (HIV-2 isolate ROD).
Data set [2] has as its system HIV-2 NC (NCp8) (HIV-2 isolate ROD).
Data set [3] relates to HIV-2 MA (HIV-2 isolate ROD).

Turning to HIV-2 TARpA RNA, the figures for the Kd in data set [1], in data set [2] and in data set [3] were 965 nM, 1430 nM and 2380 nM, respectively.

Consider HIV-2 Ψ RNA, for which the dissociation constant Kd came to 125 nM in data set [1], 979 nM in data set [2] and 1510 nM in data set [3].

For HIV-2 PBS RNA, the Kd in data set [1] came out at 314 nM; in data set [2], 2040 nM; in data set [3], 2070 nM.
